Measurements published in paper PMC3311620.

Biological target: CXCR7-RLuc (human) (UniProt P25106)
Chain of UniProt P25106 (P25106 whole entry): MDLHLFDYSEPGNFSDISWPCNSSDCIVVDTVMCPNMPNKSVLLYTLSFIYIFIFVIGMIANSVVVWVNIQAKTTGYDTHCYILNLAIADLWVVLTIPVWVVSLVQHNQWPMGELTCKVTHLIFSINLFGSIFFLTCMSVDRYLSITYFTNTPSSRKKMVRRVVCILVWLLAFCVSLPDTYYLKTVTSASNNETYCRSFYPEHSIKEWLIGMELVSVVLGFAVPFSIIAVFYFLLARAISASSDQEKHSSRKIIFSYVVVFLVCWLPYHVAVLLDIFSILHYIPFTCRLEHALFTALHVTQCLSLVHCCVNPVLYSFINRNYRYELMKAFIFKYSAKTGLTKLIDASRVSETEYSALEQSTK

- pEC50 of CXCL11 for β-arrestin1-YFP recruitment to CXCR7-RLuc (BRET, HEK293T): 8.7
- pEC50 of CXCL11 for β-arrestin2-YFP recruitment to CXCR7-RLuc (BRET, HEK293T): 8.5
B1: CXCL11 (I-TAC) (ligand)
chain: FPMFKRGRCLCIGPGVKAVKVADIEKASIMYPSNNCDKIEVIITLKENKGQRCLNPKSKQARLIIKKVERKNF
